The data set concerns the molecule itself. As to the kind of experiment: SDS-PAGE after oxidation with CuCl2. On the procedure:
Oxidation: Purified proteins were oxidized in 50 mM Tris pH 8.0 buffer containing 100 μm CuCl_2 overnight at 4° C. CuCl_2 was then removed by chelating it by adding 1 mM EDTA to the above mixture. Protein was further purified by passing it through Q Sepharose column and eluting off the column with 150-500 mM NaCl gradient. Fractions containing purified oxidized protein were identified by running on a SDS-PAGE gel under non-reducing conditions and pooled and concentrated to 5 mg/ml and snap frozen in liq N_2 and stored at −80° C.

Residue numbers refer to the chain shown, from its start. Names may count otherwise.

B1: G4C/S10C/T172R/G173Q CocE with H6 tag (enzyme)
chain: MVDCNYSVACNVMVPMRDGVRLAVDLYRPDADGPVPVLLVRNPYDKFDVFAWSTQSTNWLEFVRDGYAVVIQDTRGLFASEGEFVPHVDDEADAEDTLSWILEQAWCDGNVGMFGVSYLGVTQWQAAVSGVGGLKAIAPSMASADLYRAPWYGPGGALSVEALLGWSALIGRQLITSRSDARPEDAADFVQLAAILNDVAGAASVTPLAEQPLLGRLIPWVIDQVVDHPDNDESWQSISLFERLGGLATPALITAGWYDGFVGESLRTFVAVKDNADARLVVGPWSHSNLTGRNADRKFGIAATYPIQEATTMHKAFFDRHLRGETDALAGVPKVRLFVMGIDEWRDETDWPLPDTAYTPFYLGGSGAANTSTGGGTLSTSISGTESADTYLYDPADPVPSLGGTLLFHNGDNGPADQRPIHDRDDVLCYSTEVLTDPVEVTGTVSARLFVSSSAVDTDFTAKLVDVFPDGRAIALCDGIVRMRYRETLVNPTLIEAGEIYEVAIDMLATSNVFLPGHRIMVQVSSSNFPKYDRNSNTGGVIAREQLEEMCTAVNRIHRGPEHPSHIVLPIIKRKLAAALEHHHHHH
modifications: oxidized with CuCl2: disulfide bridge between Cys 4 of one monomer and Cys 10 of the other monomer
notes: Cloned and expressed like the CC mutant (C-terminal His tag); Cross-linked homodimer; also called CCRQ; CCRQ-CocE
Regarding B1, the binding result is given as “binds”.

B2: G4C/S10C/L169K/G173Q CocE with H6 tag (enzyme)
chain: B1 chain with L169K, R172T
modifications: oxidized with CuCl2: disulfide bridge between Cys 4 of one monomer and Cys 10 of the other monomer
notes: Cloned and expressed like the CC mutant (C-terminal His tag); Cross-linked homodimer; also called CCKQ; CCKQ tetramutant
B2: the binding result was “binds”.

Values taken from US8501692 (REGENTS OF THE UNIVERSITY OF MICHIGAN, dated 2013).
